Source: article PMC11191887, “Abstracts From the First Annual Research Day Hosted by the Michigan State University College of Osteopathic Medicine, Novi, Michigan, May 15, 2023” (Spartan Medical Research Journal, 2024)

Target: T1, House dust mite allergen Der p 2 (Dermatophagoides pteronyssinus, UniProt P49278)
T1 construct: Der p 2, major allergen of the house dust mite Dermatophagoides pteronyssinus; The structure is said to show monomeric Der p 2; No PDB id is printed in the abstract; source: Pichia pastoris, purified
T1 sequence (P49278 18-146): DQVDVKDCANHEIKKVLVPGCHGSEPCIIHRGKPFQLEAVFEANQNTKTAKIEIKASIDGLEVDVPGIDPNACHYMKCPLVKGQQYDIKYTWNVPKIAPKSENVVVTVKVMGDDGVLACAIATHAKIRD
Experiment: crystal structure; purified 4C8 Fab and Der p 2 mixed in a 1:1 molar ratio for crystallization; X-ray, 3.0 Å
Settings: both partners purified

- stoichiometry N: 2
B1: human-derived IgE mAb 4C8 Fab (Fab, V domains shown)
VH: EVQLVESGGGLVQPGGSLRLSCAASGFTFSSYAIHWVRQAPGKGLEWVSGLSGGGGDTDYADSVKGRLTISRDNSKKTLFLEMNNLRPEDTAIYYCAKLTGYGSTPGSYMDVWGKGTTVSVSS
VL: SFELTQPPSVSVSPGQTASITCSGDKLGDIYASWYQQKPGQSPVVVIFQDNKRPSGVPERFSGSNSGNTATLTISGTQALDEADYYCQAWDTSTSVFGTGTKVTVL
notes: Fab of a human IgE mAb isolated from hybridomas obtained from a house dust mite allergic patient; also called hIgE mAb 4C8 Fab; source: CHO cells, purified
